As a reminder, the Kd is the free concentration of one partner at which half of the binding sites on the other are occupied at equilibrium, for simple one-to-one binding. A high value points to a looser complex. The term EC50 denotes the concentration giving half of the maximal effect. A lower EC50 goes with a more potent agent. A word on the IC50: it is the concentration that inhibits the measured activity by half. Higher therefore signals a need for much substance.

Experiment [1] addresses T1, NTSR1 ECL2 peptide (Homo sapiens, UniProt P30989). In words: Kon (M^-1s^-1). The procedure: (§1) Table printed on a drawing sheet, FIG. 2
Head of the field: Kon (M^-1s^-1)
(§2) The patent's description of the figure: FIG. 2 is a graph showing affinity and kinetics data of h7C3-3. The binding affinity between h7C3-3 and NTSR1 ECL2 peptide was determined by surface plasmon resonance (SPR).
(§3) First copying reader's note: Table stands under the sensorgram plot headed h7C3-3 inside the same frame.
(§4) Where the first naming reader finds the target: description_of_the_figure: The binding affinity between h7C3-3 and NTSR1 ECL2 peptide was determined by surface plasmon resonance (SPR).

Experiment [2] has as its target T1, NTSR1 ECL2 peptide. The experiment is described as follows: Koff (s^-1). The protocol:
as §1
Head of the field: Koff (s^-1)
as §2, §3, §4

The next experiment has as its system A549 cells. The experiment is described as follows: Internalization of NTSR-1 antibody (flow cytometry). The format is cell-based. Particulars: A549, 10 μg/ml. The procedure: NTSR-1 antibody was used for flow cytometry analysis to compare the NTSR1 expression level in different lung and HCC cell lines, including A549, H1299, HA22T and Mahlavu. A total of 1×10^6 cells were reacted with the h7C3-3 antibody in FACS buffer for 60 minutes at 4° C. and washed two times to remove excess antibody. Cells were then transferred to 4° C. or 37° C. for 0, 0.5, 2, 5, 24 hours and followed by an additional incubation with secondary anti-human IgG Fc-PE (BioLegend) antibody for 60 minutes at 4° C. Cells were washed again, and data were collected by BD LSRFortessa. Fluorescence intensity from channel FL-1 was calculated with Flow Jo flow cytometry analysis software.
A general note: Flow cytometry measures light scatter and fluorescence of single cells or particles in a stream.

Experiment [3] concerns NTSR1-expressing A549 cancer cells. The experiment is described as follows: Internalization of h7C3-3 or h7C3-3-ADC in A549 cells (flow cytometry). Particulars: A549, 1 μg/ml, 37° C. for 90 minutes. The format is cell-based. The protocol:
A total of 1×10^6 cells were reacted with the indicated antibody or ADC in 100 μL of FACS buffer for 60 minutes at 4° C. and washed to remove excess antibody or ADC. Cells were then transferred to 4° C. or 37° C. for 90 minutes. To determine the relative number of h7C3-3 or h7C3-3-ADC on the cell surface, cells were stained with saturating amounts of FITC (BD Pharmingen™) conjugated mouse anti-human IgG antibodies and incubated for additional 60 minutes on ice. Cells were washed again and followed by an additional incubation with 1 ml PBS containing 0.5 mg/mL propidium iodide at 4° C. for 10 minutes. Data were collected on 10,000 living cells by FACS (Bio-Red S3e cell sorter). Fluorescence intensity from channel FL-1 was calculated with Flow Jo flow cytometry analysis software. Preparation of anti-NTSR1 antibody-drug conjugates (ADCs)

In experiment [4] the target is T1, NTSR1 ECL2 peptide. The experiment is described as follows: Surface plasmon resonance with immobilized ECL2 peptide. To be noted: SPR, 1:1 binding model. The procedure: The interaction of NTSR1-specific mAbs with extracellular loop 2 (ECL2) peptides of NTSR1 was measured by surface plasmon resonance using an Open SPR (Nicoya, Canada) instrument. Biotin-conjugated ECL2 peptides were immobilized on a streptavidin-coated sensor chip by injecting the peptides diluted in HBS-EP5 buffer saline (20 mM HEPES, 250 mM NaCl, 3 mM EDTA, 0.05% Tween 20 and 0.5% BSA, pH 7.4) at a concentration of 10 μg/ml at a flow rate of 30 μl/min. For kinetic experiments, NTSR1-specific mAbs diluted in HBS-EP5 at concentrations ranging from 24 to 1.5 nM were injected at a flow rate of 30 μl/min over the immobilized ECL2 peptides. Binding of the NTSR1-specific mAbs at different concentrations to the immobilized ECL2 peptides were analyzed using the TraceDrawer software (Nicoya, Canada). Association rate (ka), dissociation rate (kd), and affinity (KD) were calculated using global analysis, fitting the data to a simple 1:1 binding model.
Target sequence in this assay (P30989 206-234 limits assumed): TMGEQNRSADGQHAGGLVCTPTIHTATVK
A general note: SPR reads the build-up and loss of mass on a sensor chip optically.

The target in another experiment is T2, NTSR1 on A549 cells (Homo sapiens, UniProt P30989).
T2 construct: endogenous in cells; host or cells: A549 (NSCLC)
T2 sequence (P30989 whole entry): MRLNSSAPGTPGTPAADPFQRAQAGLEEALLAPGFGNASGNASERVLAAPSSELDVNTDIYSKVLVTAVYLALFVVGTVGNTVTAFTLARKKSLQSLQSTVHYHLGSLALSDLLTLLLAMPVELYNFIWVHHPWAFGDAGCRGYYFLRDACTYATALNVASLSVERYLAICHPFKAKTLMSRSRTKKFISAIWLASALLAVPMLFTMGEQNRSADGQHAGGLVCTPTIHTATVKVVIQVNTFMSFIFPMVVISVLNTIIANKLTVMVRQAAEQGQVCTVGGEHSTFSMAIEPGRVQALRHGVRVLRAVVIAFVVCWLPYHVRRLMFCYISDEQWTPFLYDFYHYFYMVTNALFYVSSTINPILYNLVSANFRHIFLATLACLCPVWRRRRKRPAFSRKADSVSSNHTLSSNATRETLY
The experiment is described as follows: Flow cytometry (FACS) binding of anti-NTSR1 antibodies on A549 cells. The protocol: A total of 1×10^6 cells were reacted with an anti-NTSR1 antibody in 100 μL of FACS buffer (PBS containing 0.5% BSA) for 60 minutes at 4° C. and washed two times to remove excess antibody. Secondary FITC (BD Pharmingen™) conjugated mouse anti-human IgG antibodies were incubated for an additional 60 minutes on ice. Cells were washed again and followed by an additional incubation with 1 ml PBS containing 0.5 mg/mL propidium iodide at 4° C. for 10 minutes. Data were collected on 10,000 living cells by FACS (Bio-Red S3e cell sorter). Fluorescence intensity from channel FL-1 was calculated with Flow Jo flow […] cytometry analysis software.

For experiment [5], the system named is cyclic ECL2 peptide of NTSR1. In words: NTSR1-binding affinity ELISA (alanine scanning variants). Details: species or system human. Particulars: h7C3-2 variants. The procedure: The NTSR1-binding capacity of different antibodies were measured by ELISA. Briefly, NeutrAvidin 96-well plates (Pierce Cat:15128) were coated with cyL2-Biotin peptides at a final concentration of 5 μg/ml at […]. On the following day, the coating solution was removed, and the plates were blocked with 5% (v/v) non-fat dry milk in phosphate buffer saline (PBS) for 1 hour. After washing with PBST, gradient concentrations of anti-NTSR1 antibodies were added in triplicate. After 1 hour of incubation, the plate was washed three times with PBST, followed by the addition of horseradish peroxidase (HRP)-conjugated goat anti-human IgG Fc antibody (100 μL) into each well for an additional hour at RT. Finally, 100 μL of tetramethylbenzidine (TMB) substrate was added into each well to produce color for visualization. After 2 minutes of incubation, 100 μL of 2M H2SO4 was used to stop the reaction. The absorbance of each well was read at 450 nm with a plate reader. Flow cytometry

A further experiment deals with T3, NTSR1 (Homo sapiens, UniProt P30989).
T3 construct: Solid tumors were excised from PC-3 xenograft mice without treatment, followed by immunohistochemistry staining using antibodies specific for NTSR1; from tissue; host or cells: PC-3 prostate cancer xenograft tumour grown in mice
T3 sequence (P30989 whole entry): as above
The experiment is described as follows: Immunohistochemistry staining of PC-3 xenograft tumor tissue. Particulars: 2 μg/ml antibody. The procedure: Deparaffinized tissue sections (4 μm) were subjected to heat-induced epitope retrieval in Tris-EDTA buffer (pH 9) at 95° C. for 30 minutes. The sections were blocked with inhibitor CM at 37° C. for 4 minutes. The slides were incubated with primary antibody including 2 μg/ml anti-NTSR1-B12 (SC-376958, Santa Cruz Biotechnology) and different […] antibody clones (7C3, h7C3-2 and h7C3-3) for 1 hour. The slides were then incubated with appropriate secondary antibodies; OmniMap anti-mouse-HRP for anti-NTSR1-B12 and anti-human-HRP for 7C3, h7C3-2 and h7C3-3 at RT for 30 minutes. The staining was performed with diamino-benzidine tetrahydrochloride.

For the next experiment, the system named is PC-3. In words: In vitro cell cytotoxicity assay (CellTiter-Glo). It counts as cell-based.
In another experiment the test system is HA22T. In words: In vitro cell cytotoxicity assay (CellTiter-Glo). It counts as cell-based. (In general: Cellular ATP, detected with luciferase, serves as a proxy for viable cell number.)
In a further experiment the test system is H1299. The experiment is described as follows: In vitro cell cytotoxicity assay (CellTiter-Glo). It counts as cell-based.
The next experiment relates to A549. The experiment is described as follows: In vitro cell cytotoxicity assay (CellTiter-Glo). The format is cell-based.
The next experiment relates to Mahlavu. The experiment is described as follows: In vitro cell cytotoxicity assay (CellTiter-Glo). The format is cell-based.
In another experiment the test system is HA22T-Luc. The experiment is described as follows: In vitro cell cytotoxicity assay (CellTiter-Glo). It counts as cell-based.

B1: h7C3-3: 7C3 variant bearing T28A in CDR H1, Y100H in CDR H3 and S97A in CDR L3 (antibody, V domains shown)
VH: QVQLQQPGSVLVRPGASVKLSCKASGYAFTSSWIHWAKQRPGQGLEWIGQIRPNSGNTYYNEKFKVKATLTVDTSSSTAYVDLSSLTSEDSAVYYCARYHYGFDYWGQGTLVTVSS
VL: DVLMTQTPLSLPVSLGDQASISCRSSQSIVHSNGNTYLEWYLQKPGQSPKLLIYKVSNRFSGVPDRFSGSGSGTDFTLKISRVEAEDLGVYYCFQGAHLPWTFGGGTKLEIKR
For the molecule B1, in the experiment with NTSR1 ECL2 peptide [1], the “Kon” value amounted to 441000 M⁻¹ s⁻¹. Besides, the “Koff” value with NTSR1 ECL2 peptide [2] worked out at 0.000134 s⁻¹. Further, the “mean fluorescence intensity (MFI) upon shifting cells from 4° C. to 37° C. (internalization)” value in the experiment with A549 cells is on record as “decreased gradually”. Further, in experiment [3], the internalization efficiency entry is “internalized efficiently”. Moreover, the affinity with NTSR1 ECL2 peptide [4], expressed as Kd, was 0.3 nM. In addition, in the experiment with NTSR1 on A549 cells (A549 cells, antibody 1 μg/ml), the “FACS binding (%, 1 μg/ml)” value amounted to 98.7%. Besides, the “FACS binding (%, 10 μg/ml)” value with NTSR1 on A549 cells (A549 cells, antibody 10 μg/ml) is 100%. Further, the “binding on cell surface” value with NTSR1 on A549 cells (A549 cells, one hour incubation at 4° C.) is “have binding efficiency on cell surface”. In addition, the “affinity for NTSR1 on A549 cells compared with h7C3-2” value with NTSR1 on A549 cells (FACS, h7C3-2 variant) is on record as “higher affinity”. In addition, the “EC50” value in the experiment with NTSR1 on A549 cells (relative mean fluorescence intensity (MFI) on A549 cells) worked out at 1.1 µg/mL. The “binding affinity to peptide compared with h7C3-2 (in words)” value in experiment [5] is listed as “higher binding affinity”. Also, the immunohistochemistry staining result in the experiment with NTSR1 is “clustered and more intense”. Moreover, the IC50 with PC-3, with HA22T, with H1299, in the experiment on A549, with Mahlavu and with HA22T-Luc was above 500 nM in each case.

(Values after patent publication US12710427B2, “Anti-human neurotensin receptor 1 antibody and use thereof” (National Health Research Institutes, priority 2020, dated 2026).)
